This is an account of results in the supplement of paper PMC12042874.

± gives the uncertainty stated by the source.

This data set is described as follows: amyloid nucleation score (Sup35N fusion, yeast selection) (log enrichment); library NNK1; higher = more nucleation; inactive = no reads after selection. In outline: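 Random libraries were run with three technical output replicates. In each, psi-negative yeast expressing Sup35N fused to peptides of 20 random codons were induced 24 hours with 100 μM copper sulfate and grown 7 days at 30°C on medium lacking adenine and uracil, and input and output plasmid inserts were Illumina-sequenced. The nucleation score is the DiMSum log enrichment of output over input reads, centred on the mode score of non-aggregating sequences, and sequences under 100 input reads were excluded.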
As for WHKLRPFEGAIKMFSAWISL, the amyloid nucleation score entry is “inactive”.

WHKMMQLSLCSEYELLFNLQ displayed an amyloid nucleation score of 0.51 ± 0.9. With WHPAKMILEYAEVRSNL the figure was -0.032 ± 0.39; with WIEEIVCIGS, 1.03 ± 0.68; with WIRHSNNICMM, 1.26 ± 0.18. The result for WISFPLV reads 0.046 ± 0.48; that for WISHSVSLFVSVLGMWMSRD, -2.09 ± 2.4.

The substance WISYVQNTIYRFAFEESCLG displayed an amyloid nucleation score of 1.31 ± 0.43.

Turning to WKCWGLCHLQR, the amyloid nucleation score was -1 ± 0.93. With WKVKLNGIG the figure was 0.341 ± 0.28; with WKYVTLELIWWTTLVTAWGT, 1.02 ± 0.8; with WLDHEISSELAGYPLWLSAN, 2.19 ± 0.17. Regarding WLDRGW, the amyloid nucleation score worked out at 0.282 ± 0.33.

Regarding WLESRQPAEESVVVWNERVG, the amyloid nucleation score is -0.831 ± 1.3. With WLGMRMVGNVVERLYSVRCQ, the amyloid nucleation score was -0.111 ± 0.7. The result for WLHGFKWRED reads -0.541 ± 0.68; that for WLISFGDFDGSMFKMMSNTK, 2.67 ± 0.13. In the case of WLIVIGMGRLGIVIMLGGLK, the amyloid nucleation score came out at 0.723 ± 0.44. On to WLLVQLYYVCYFGLRLEFSM, for which the amyloid nucleation score was -0.237 ± 0.18. In the case of WLNHKRIVINTQLMLYSPGC, the amyloid nucleation score came out at 4.68 ± 0.11. With WLVGKTCNLYDLVLASLSNG, the amyloid nucleation score is -0.704 ± 0.4. As to WLWPPLACDHMPIAVSETDA, the amyloid nucleation score is -0.775 ± 0.99. On to WMDNTSHRFESCEV, for which the amyloid nucleation score worked out at 0.635 ± 0.55.

In the case of WMLVRAACLGIKRKNG, the amyloid nucleation score was 0.759 ± 0.51. For WMYRLYSISLITSDCS, the amyloid nucleation score was found to be 0.514 ± 0.33.

Regarding WMYTMTGFEVNRTVNFYWTI, the amyloid nucleation score was -0.095 ± 0.29.

Regarding WNDWSYHCNF, the amyloid nucleation score is -0.11 ± 0.27. With WNLATMVADRSPRNKLWTRP the figure was 0.397 ± 0.97; with WNMLPSIPGDRGWLDGVPVV, -0.45 ± 0.39; with WNNVSCIELSSVSWNPDEVG, -0.302 ± 0.3.

On to WNPYPTCSYSPFATSGDSAF, for which the amyloid nucleation score is -1.13 ± 0.76. With WPGLFMIY the figure was 0.016 ± 0.49. Consider WPGMPRS, for which the amyloid nucleation score was determined as 1.17 ± 0.35. The result for WPWCQYTYRFLSIMCKVFL reads 0.288 ± 0.65; that for WRFLLWSFHSEAYLIVYS, -0.773 ± 0.49; that for WRNYYHWVTFRSDRLDRWFG, 1.85 ± 0.12. With WRRRDRVLQCWL the entry was “inactive”. On to WRSSWWWRCCYYSSSSMSRW, for which the amyloid nucleation score turned out to be 1.12 ± 0.6.

Take WRTARFSGKF: the amyloid nucleation score was -0.048 ± 0.4. WRVYQSFGDLAVCTF had an amyloid nucleation score of 0.326 ± 0.45.

Regarding WRYRRCSYY, the amyloid nucleation score is 0.781 ± 0.47. With WRYRSRCMGGVVDRLLCDVW the figure was 3.33 ± 0.076. Substance WSHSILCIQSRSRIYPTHWL had an amyloid nucleation score of 0.495 ± 0.29.

Regarding WSIDVNTTACKFFFRCSSCN, the amyloid nucleation score amounted to 1.43 ± 0.74. Regarding WSIEWFYSMSYARIDME, the amyloid nucleation score was -1.23 ± 0.79. The result for WSINMCCMRSRLWNFDGRKE reads 4.04 ± 0.074; that for WSMLSADSRISYYIYQCSLF, 2.31 ± 0.32; that for WSSHYVSLRKVCVCGRRPWS, 3.46 ± 0.079.

As to WSVDIGLRGLIMRMKYCEFR, the amyloid nucleation score was -1.01 ± 0.54. WSWRRVVAWLH: the amyloid nucleation score came to 0.727 ± 0.34. Consider WSYGSEPM, for which the amyloid nucleation score result was “inactive”.

WTAHSSL showed an amyloid nucleation score of 1.09 ± 0.76. The result for WTFTVVFFLKVSSL reads 0.81 ± 0.78; that for WTWILPMVRTIIYQY, -0.356 ± 0.27. Take WVIVASP: the amyloid nucleation score was -1.42 ± 0.85. With WVLPEAHVYGRWVT, the amyloid nucleation score stood at 1.06 ± 0.52. With WVSNL the figure was 0.296 ± 0.44.

Consider WVTHRL, for which the amyloid nucleation score is -0.715 ± 1.2. The result for WWIGNSTRYCVGMVWSI reads “inactive”. With WWLLSLP the figure was 0.196 ± 0.26; with WWVNL, 0.247 ± 0.3; with WWYSDMWMVSC, 2.34 ± 0.46. The result for WYIVGSFTGITLVVNLALNL reads “inactive”. Consider WYIVPITVNFQG, for which the amyloid nucleation score was 6.54 ± 0.049. With WYLWHMLICLVTFRMNSFFR the figure was 0.707 ± 1; with YAMNPHTDGPCTFNWVFYGK, 8.094 ± 0.056. With YASSYNKRCNNVMNVVW the figure was -0.299 ± 0.25; with YASTSNILLSIS, 0.546 ± 0.2.

YAYFVSWGVFVIENVFPYKY: the amyloid nucleation score was -1.27 ± 0.66. Turning to YCAFTSLRIIRISNIFIRHE, the amyloid nucleation score entry was “inactive”. With YCCDDDGKFAWNECWDDTAR the figure was 0.102 ± 0.21. The result for YCEYASVVLFGTELCFAWVY reads 0.001 ± 0.73; that for YCGKR, 1.12 ± 0.58. The result for YCGMCVYLISYMATFNCYYY reads 3.54 ± 0.1. Substance YCKLDLPVTIEVKCSRGRMS yielded an amyloid nucleation score of 5.17 ± 0.08.

YCKLDVAVFCVQYNMSMSEQ: the amyloid nucleation score was determined as 5.46 ± 0.079. The result for YCQSSWMSSFSTEFHKARLN reads 0.43 ± 0.39. In the case of YCSSVEVGVYLNVLICFSGL, the amyloid nucleation score came out at 3.18 ± 0.062. YCVSFLRSSLP had an amyloid nucleation score of 3.39 ± 0.12. Take YCWFFMLWEYTCWLVF: the amyloid nucleation score was 0.17 ± 0.28. As for YCYYYVNTCVV, the amyloid nucleation score was found to be 2.07 ± 0.53. YDASGLWMCKERAEGFMRNV: the amyloid nucleation score was -0.273 ± 0.95. With YDDTTMYRFWLHFKM, the amyloid nucleation score was 0.638 ± 0.3. With YDKFPTLVMGAKRSGWG the figure was -0.761 ± 0.78; with YDLGLIVSYDLLSVKEVPDR, 1.48 ± 0.55; with YDLLSLGDTTCRHSEILNRP, 0.924 ± 0.63.

For the substance YDLNYKDCSLRSVSSVGLQC, the amyloid nucleation score was determined as 0.099 ± 0.19. With YDNIWYKVNRAYEIRWLVGG the figure was -0.383 ± 1.7. The result for YDQNWMRTIDRVNH reads -0.292 ± 0.5; that for YDRNCFGAPFNSVVQVTGKS, -0.94 ± 1. The result for YDRNRSMPSLLRP reads “inactive”; that for YDSSLMGVWMCGCIARWEVS, -1.93 ± 2.7. With YDVVRSGFLGVDNITRLMPR, the amyloid nucleation score was -0.27 ± 1.2.

For the substance YDYLDALHLTEASKSGCLVN, the amyloid nucleation score amounted to 0.423 ± 0.69. Turning to YDYSLCANIMNRYHAK, the amyloid nucleation score amounted to 0.333 ± 0.29. As for YEMSY, the amyloid nucleation score was -1.38 ± 2.4. YENSFGGHYSDESNTRRWEF: the amyloid nucleation score was determined as 1.44 ± 0.36. With YEQVNIRNG the figure was 0.138 ± 0.87; with YERIPFLDSGTYGIYDWTAR, -0.372 ± 0.3. With YFDKKLGLS the entry was “inactive”. The result for YFGVFCQRMMVTALSPKNPT reads -0.369 ± 0.32; that for YFKSWTLNMCVGIKNK, 4.66 ± 0.056; that for YFLICSLWPYVLPYCVCRFV, -0.728 ± 0.5. Substance YFLLLRFY showed an amyloid nucleation score of 0.094 ± 0.44. The result for YFLRHCCPD reads -1.8 ± 2.4; that for YFVGGF, -0.859 ± 0.91. The result for YFYIPFNEMNRWTYCCIRWW reads -0.04 ± 0.36; that for YGEHMLVDRCMRWVSSFYRG, 1.62 ± 0.3; that for YGFVAYSDIVKAFGVIKSTG, -0.315 ± 0.31. YGGNL registered an amyloid nucleation score of 0.169 ± 0.52. With YGLPFHVPACCAYLVVCKGR the figure was -0.018 ± 0.54; with YGNFKVGFFVIRAWNWLNLI, 0.319 ± 1.2; with YGRVTDYCKCCVILRLSYWV, -0.993 ± 0.77. In the case of YGSSAL, the amyloid nucleation score was -0.419 ± 0.23.

As to YGTGMCHELCIDVTSWVMWM, the amyloid nucleation score was -1.57 ± 0.79. For YGVNHRMYSKWHSVGAWMCR, the amyloid nucleation score is 1.21 ± 0.66.

For the substance YHLTQYDTMLLQYMWNHDWD, the amyloid nucleation score was -0.707 ± 0.89. With YHSSYVK the figure was -1.36 ± 2.7; with YHVMD, “inactive”; with YIDIVGSSW, 4.83 ± 0.07.

Turning to YIHLMRYARNLLPFRYCV, the amyloid nucleation score was -0.641 ± 0.5.

Take YIIYWGAQLSILHENSPSFG: the amyloid nucleation score was 0.354 ± 0.33.

As to YILVNMMGVWVVKVTHKVN, the amyloid nucleation score result was “inactive”.

With YILVYSSVTRRYHKSRSYVG, the amyloid nucleation score is -0.09 ± 0.29. The result for YINVLVKAHGMMVPRRLKWV reads 0.086 ± 0.32; that for YIPICIRSYIKNAS, 0.413 ± 1.2; that for YISNTRRLLQMIVCVMKSYG, “inactive”.

In turn, YIVAVEHLLCSVRSYGHGMG came in with an amyloid nucleation score of 0.724 ± 0.83.

Turning to YIWFC, the amyloid nucleation score was determined as 6.28 ± 0.071. Consider YIWSVYLLLCWHWCRMSCSG, for which the amyloid nucleation score worked out at 1.23 ± 0.6. With YIYEDFGG the figure was -0.407 ± 0.57; with YKDYVDLERAFKLMPGQKLW, “inactive”; with YKGVGPIVIFIQWVYITVNN, 4.1 ± 0.11. The result for YKGWYFFYVCFSKLSIGS reads -0.305 ± 0.72; that for YKLLYGYWLDWREGRNHKPK, 0.479 ± 0.32; that for YKTEHNRSIDLLGISSSSFL, -0.322 ± 1. YLAGILHTCLTLDSDVRFYT displayed an amyloid nucleation score of 0.722 ± 0.54.

In turn, YLAQIELRLV showed an amyloid nucleation score of 0.053 ± 0.79.

In turn, YLASREDDINMDASLLSTHA displayed an amyloid nucleation score of 1.41 ± 0.66.

As for YLDFNHM, the amyloid nucleation score result was “inactive”. The result for YLELLPAYRLFTGLVVLLMI reads 0.736 ± 0.13; that for YLFMMAIRGAKTLVS, “inactive”.
